Experimental data as given in publication PMC7477951 (Structure (London, England : 1993), 2019).

Tests used:
[1] = biological target: human HVEM (L39-C162) expressed in Drosophila S2 cells (human) (UniProt Q92956); experiment: SPR
[2] = biological target: human LIGHT (L83-V240) expressed in Drosophila S2 cells (human, UniProt O43557 83-240); experiment: SEC
[3] = biological target: T1, HVEM part of the single-chain human CD160-HVEM (sc_CD160:HVEM) (human, UniProt Q92956 39-143); experiment: crystal structure
T1 sequence: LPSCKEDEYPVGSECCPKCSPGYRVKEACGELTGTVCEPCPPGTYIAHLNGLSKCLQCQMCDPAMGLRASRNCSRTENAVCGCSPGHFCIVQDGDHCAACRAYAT

Chain of human LIGHT (L83-V240) expressed in Drosophila S2 cells (O43557 83-240): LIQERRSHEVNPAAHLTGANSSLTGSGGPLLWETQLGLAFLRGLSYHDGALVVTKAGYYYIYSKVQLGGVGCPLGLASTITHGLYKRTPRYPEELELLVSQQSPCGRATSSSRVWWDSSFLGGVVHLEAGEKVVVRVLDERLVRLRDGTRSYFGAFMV

human CD160 ectodomain (I27-L158) expressed in Drosophila S2 cells (from UniProt O95971 27-158) (domain or fragment)
Kd [1]: 6.7 µM

refolded human CD160 ectodomain (residues I27-K144) (from UniProt O95971 27-144) (domain or fragment)
Kd [1]: 7.1 µM

B1: human HVEM (L39-C162) expressed in Drosophila S2 cells (receptor, UniProt Q92956 39-162, looked up)
chain: LPSCKEDEYPVGSECCPKCSPGYRVKEACGELTGTVCEPCPPGTYIAHLNGLSKCLQCQMCDPAMGLRASRNCSRTENAVCGCSPGHFCIVQDGDHCAACRAYATSSPGQRVQKGGTESQDTLC
binding result [2]: binds

B2: CD160 part of the single-chain human CD160-HVEM (sc_CD160:HVEM) (domain or fragment)
chain: INITSSASQEGTRLNLICTVWHKKEEAEGFVVFLCKDRSGDCSPETSLKQLRLKRDPGIDGVGEISSQLMFTISQVTPLHSGTYQCCARSQKSGIRLQGHFFSILFTETGNYTVTGLK
modifications: glycosylated
stoichiometry N [3]: 1
